Laboratory results: US20240209100A1 (DIAGONAL THERAPEUTICS, published 2024)

T1: IL-18 receptor (IL-18Rα/IL-18Rβ) overexpressed on HEK-Blue IL-18 cells (Homo sapiens (Human), UniProt Q13478 19-541; O95256 20-599)
T1 sequence 1: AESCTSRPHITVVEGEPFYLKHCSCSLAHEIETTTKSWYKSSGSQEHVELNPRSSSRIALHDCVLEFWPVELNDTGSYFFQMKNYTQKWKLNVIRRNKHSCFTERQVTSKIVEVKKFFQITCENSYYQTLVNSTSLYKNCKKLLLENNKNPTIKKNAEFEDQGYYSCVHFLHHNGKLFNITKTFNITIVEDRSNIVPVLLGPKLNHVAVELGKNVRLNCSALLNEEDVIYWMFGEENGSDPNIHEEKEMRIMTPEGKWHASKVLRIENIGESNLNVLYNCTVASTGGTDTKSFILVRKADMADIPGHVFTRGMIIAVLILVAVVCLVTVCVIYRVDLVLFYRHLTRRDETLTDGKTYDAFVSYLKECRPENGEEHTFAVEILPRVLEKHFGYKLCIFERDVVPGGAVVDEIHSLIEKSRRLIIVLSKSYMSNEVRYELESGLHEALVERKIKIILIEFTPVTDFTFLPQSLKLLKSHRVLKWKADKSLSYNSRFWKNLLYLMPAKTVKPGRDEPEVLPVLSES
T1 sequence 2: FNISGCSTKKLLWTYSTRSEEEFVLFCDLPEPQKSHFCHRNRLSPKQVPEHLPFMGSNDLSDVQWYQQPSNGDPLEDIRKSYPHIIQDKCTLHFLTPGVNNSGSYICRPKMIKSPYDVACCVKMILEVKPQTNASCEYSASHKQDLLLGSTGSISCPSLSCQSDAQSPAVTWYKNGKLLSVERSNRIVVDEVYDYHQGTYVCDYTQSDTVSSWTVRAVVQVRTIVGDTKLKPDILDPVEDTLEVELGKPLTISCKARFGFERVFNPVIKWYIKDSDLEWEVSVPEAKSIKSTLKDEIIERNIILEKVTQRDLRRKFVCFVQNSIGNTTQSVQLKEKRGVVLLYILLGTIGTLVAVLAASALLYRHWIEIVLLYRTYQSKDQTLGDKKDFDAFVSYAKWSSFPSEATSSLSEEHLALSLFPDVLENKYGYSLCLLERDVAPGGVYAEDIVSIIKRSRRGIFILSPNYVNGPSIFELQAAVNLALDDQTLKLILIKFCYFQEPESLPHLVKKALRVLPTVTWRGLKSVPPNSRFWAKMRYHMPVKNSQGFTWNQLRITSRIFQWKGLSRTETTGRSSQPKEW

B1: DGL168 (bispecific antibody)
heavy 1: QVQLVESGGGLVQAGGSLRLSCAASGRTFSSYNMGWFRQAPGKERESVAAISWSGGSSYYADSVKGRFTISRDNAKPTVYLQMNSLKPEDTAVYYCAADRDSEEWDGSSWFFKSDYWGQGTQVTVSSGGGSQVQLVESGGGLVQTGGPLRLSCAASGGTFSRYTMGWFRQAPGKEREYVAAISWRGSSIYYADAVKGRFTISRDSAKSTVYLQMNNLNSDDTAVYYCAADRTDLPRNAGEYGYWGQGTQVTVSSDKTHTCPPCPAPEAAGGPSVFLFPPKPKDTLMISRTPEVTCVVVDVSHEDPEVKFNWYVDGVEVHNAKTKPREEQYNSTYRVVSVLTVLHQDWLNGKEYKCKVSNKALPAPIEKTISKAKGQPREPQVCTLPPSRDELTKNQVSLSCAVKGFYPSDIAVEWESNGQPENNYKTTPPVLDSDGSFFLVSKLTVDKSRWQQGNVFSCSVMHEALHNHYTQKSLSLSPG
heavy 2: not shown
B2: DGL169 (bispecific antibody)
heavy 1: QVQLVESGGGLVQAGGSLRLSCAASGRTFSSYTMGWFRQAPGKEREFVAAISWSAGRTYYADSVKGRFTISRDNAKNTVYLQMNSLKPEDTAVYFCAAEEAPDWAPIDCSGYGCLSLYDYWGQGTQVTVSSGGGSQVQLVESGGGLVQAGGSLRLSCAASQTGFNMNRMGWYRQAPGKQRELVATITGGGSTTYADSVKGRFDISRGNVENNLYLQMNSLKPEDTAVYYCNALLFGRDYWGQGTQVTVSSDKTHTCPPCPAPEAAGGPSVFLFPPKPKDTLMISRTPEVTCVVVDVSHEDPEVKFNWYVDGVEVHNAKTKPREEQYNSTYRVVSVLTVLHQDWLNGKEYKCKVSNKALPAPIEKTISKAKGQPREPQVCTLPPSRDELTKNQVSLSCAVKGFYPSDIAVEWESNGQPENNYKTTPPVLDSDGSFFLVSKLTVDKSRWQQGNVFSCSVMHEALHNHYTQKSLSLSPG
heavy 2: not shown
B3: DGL171 (bispecific antibody)
heavy 1: EVQLVESGGGLVQAGGSLRLSCAASGSISSRDTMGWYRQAPGKQREMVAVISSSGNTNYADSVLGRFTISRDNAKNTVDLQMNSLKPEDTAIYKCYAHRTYGVDYWGKGTLVTVSSDKGPSVFPLAPEPKSSQVQLVESGGGLVQAGGSLRLSCAASGRTFSSYTMGWFRQAPGKEREFVAAISWSAGRTYYADSVKGRFTISRDNAKNTVYLQMNSLKPEDTAVYFCAAEEAPDWAPIDCSGYGCLSLYDYWGQGTQVTVSSDKTHTCPPCPAPEAAGGPSVFLFPPKPKDTLMISRTPEVTCVVVDVSHEDPEVKFNWYVDGVEVHNAKTKPREEQYNSTYRVVSVLTVLHQDWLNGKEYKCKVSNKALPAPIEKTISKAKGQPREPQVCTLPPSRDELTKNQVSLSCAVKGFYPSDIAVEWESNGQPENNYKTTPPVLDSDGSFFLVSKLTVDKSRWQQGNVFSCSVMHEALHNHYTQKSLSLSPG
heavy 2: not shown
B4: DGL170 (bispecific antibody)
heavy 1: QVQLVESGGGLVQAGGSLRLSCVASGTFFQIHVMGWYRQAPGKQRELVAFIINNGGTRYADSVKGRFTISRDYAKNTVYLQMNSLKPEDTAVYYCNTEGTYRGRYSTDNWGQGTQVTVSSDKGPSVFPLAPEPKSSQVQLVESGGGLVQAGGSLRLSCAASGRTFSKHAMGWFRQAPGKEREFVAAIDWSGGSTYYADSVKGRFTISRDNAKNTVYLQMDSLKPEDTAVYYCAADSYTDYAQLWLPELESEYDYWGQGTQVTVSSDKTHTCPPCPAPEAAGGPSVFLFPPKPKDTLMISRTPEVTCVVVDVSHEDPEVKFNWYVDGVEVHNAKTKPREEQYNSTYRVVSVLTVLHQDWLNGKEYKCKVSNKALPAPIEKTISKAKGQPREPQVCTLPPSRDELTKNQVSLSCAVKGFYPSDIAVEWESNGQPENNYKTTPPVLDSDGSFFLVSKLTVDKSRWQQGNVFSCSVMHEALHNHYTQKSLSLSPG
heavy 2: not shown

Each binder was assayed against T1, IL-18 receptor (IL-18Rα/IL-18Rβ) … (assay: cell-based or functional assay).

Binder | HEK-Blue IL-18: Abs 405 [Abs] | HEK-Blue IL-18: Fold over Background [fold]
B1 | 0.62 | 5.1
B2 | 0.22 | 1.8
B3 | 0.53 | 4.3
B4 | 0.23 | 1.9
